T1: mouse pIgR extracellular domain (ECD) (mouse, UniProt O70570 19-645)
T1 construct: Bought from R&D Systems (Cat 2800-PG-050); also called mpIgR ECD
T1 sequence: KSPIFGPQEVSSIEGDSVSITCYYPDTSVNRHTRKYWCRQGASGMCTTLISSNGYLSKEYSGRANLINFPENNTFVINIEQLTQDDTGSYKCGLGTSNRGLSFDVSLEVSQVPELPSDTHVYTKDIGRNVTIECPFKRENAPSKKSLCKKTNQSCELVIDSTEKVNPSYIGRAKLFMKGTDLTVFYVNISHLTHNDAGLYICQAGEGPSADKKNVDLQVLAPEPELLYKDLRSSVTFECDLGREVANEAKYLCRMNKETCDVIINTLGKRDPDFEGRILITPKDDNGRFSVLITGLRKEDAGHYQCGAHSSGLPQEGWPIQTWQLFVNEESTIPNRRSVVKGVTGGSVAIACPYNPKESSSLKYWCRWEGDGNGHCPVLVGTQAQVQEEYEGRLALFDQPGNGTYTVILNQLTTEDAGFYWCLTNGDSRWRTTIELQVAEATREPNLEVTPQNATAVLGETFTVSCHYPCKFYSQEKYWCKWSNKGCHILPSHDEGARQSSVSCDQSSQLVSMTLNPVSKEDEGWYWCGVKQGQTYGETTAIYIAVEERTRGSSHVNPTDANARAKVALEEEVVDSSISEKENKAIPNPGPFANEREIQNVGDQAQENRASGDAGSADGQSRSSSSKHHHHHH

T2: rat pIgR extracellular domain (rat, UniProt P15083 19-643)
T2 construct: extracellular domain
T2 sequence (looked up): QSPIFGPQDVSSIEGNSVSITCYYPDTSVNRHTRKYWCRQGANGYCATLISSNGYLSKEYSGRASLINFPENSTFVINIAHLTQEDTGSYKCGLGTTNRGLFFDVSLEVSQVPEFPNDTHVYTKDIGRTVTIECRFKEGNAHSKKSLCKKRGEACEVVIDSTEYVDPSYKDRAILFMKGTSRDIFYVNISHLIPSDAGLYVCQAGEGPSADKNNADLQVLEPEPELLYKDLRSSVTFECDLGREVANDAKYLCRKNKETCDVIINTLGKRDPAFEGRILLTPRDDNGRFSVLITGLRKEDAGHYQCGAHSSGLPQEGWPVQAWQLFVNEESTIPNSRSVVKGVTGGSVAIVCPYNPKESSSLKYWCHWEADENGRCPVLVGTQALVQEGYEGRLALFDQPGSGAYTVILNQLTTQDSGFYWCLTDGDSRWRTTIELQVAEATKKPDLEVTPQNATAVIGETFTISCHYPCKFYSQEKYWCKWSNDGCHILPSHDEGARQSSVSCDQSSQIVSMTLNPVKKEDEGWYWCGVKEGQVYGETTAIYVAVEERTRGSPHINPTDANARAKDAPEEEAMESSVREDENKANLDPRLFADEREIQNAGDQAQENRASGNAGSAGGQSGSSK


How the values were obtained:
[1] = molecular target: T3, human pIgR extracellular domain (ECD) (human, UniProt P01833 19-638); assay: SPR, VHH captured by anti-Fc, ECD analyte
T3 construct: Bought from R&D Systems (Cat 2717-PG-050); also called hpIgR ECD
T3 sequence (P01833 other isoform, or with tags, fused parts or gaps): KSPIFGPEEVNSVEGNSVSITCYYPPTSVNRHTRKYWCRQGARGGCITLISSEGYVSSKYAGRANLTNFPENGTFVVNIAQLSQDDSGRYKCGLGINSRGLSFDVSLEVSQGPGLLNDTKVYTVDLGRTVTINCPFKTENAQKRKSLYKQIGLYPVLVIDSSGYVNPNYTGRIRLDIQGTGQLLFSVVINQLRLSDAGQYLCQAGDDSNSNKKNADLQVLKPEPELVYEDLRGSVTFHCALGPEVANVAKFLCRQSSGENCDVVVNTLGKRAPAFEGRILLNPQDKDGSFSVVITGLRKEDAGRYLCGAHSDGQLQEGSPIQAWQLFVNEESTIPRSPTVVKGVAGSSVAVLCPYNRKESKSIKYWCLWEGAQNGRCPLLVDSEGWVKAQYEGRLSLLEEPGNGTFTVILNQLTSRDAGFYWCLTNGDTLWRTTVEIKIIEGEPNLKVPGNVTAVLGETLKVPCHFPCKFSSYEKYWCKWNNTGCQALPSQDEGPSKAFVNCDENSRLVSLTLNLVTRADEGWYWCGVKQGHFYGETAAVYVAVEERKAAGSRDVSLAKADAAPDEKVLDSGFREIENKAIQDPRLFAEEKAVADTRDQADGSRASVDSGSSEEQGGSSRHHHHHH
How it was run: (§1)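 Single-cycle kinetics: ECD analyte from 30 nM, 3-fold series, low to high, with 30 min off-rate monitoring, over VHH captured at 0.5 ug/ml (~200-300 RU). HBSP plus 100 ug/ml BSA at 30 μL/min. Reference cell and buffer blank subtracted; global 1:1 Langmuir fit gave kon, koff, KD.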

[2] = molecular target: T1, mouse pIgR extracellular domain (ECD); assay: SPR, VHH captured by anti-Fc, ECD analyte
How it was run: as §1

[3] = molecular target: T4, cynomolgus monkey pIgR extracellular domain (cynomolgus monkey, UniProt A0A2K5WMU9 19-638); assay: SPR, VHH captured by anti-Fc, ECD analyte
T4 construct: extracellular domain
T4 sequence (A0A2K5WMU9 entry or part of it): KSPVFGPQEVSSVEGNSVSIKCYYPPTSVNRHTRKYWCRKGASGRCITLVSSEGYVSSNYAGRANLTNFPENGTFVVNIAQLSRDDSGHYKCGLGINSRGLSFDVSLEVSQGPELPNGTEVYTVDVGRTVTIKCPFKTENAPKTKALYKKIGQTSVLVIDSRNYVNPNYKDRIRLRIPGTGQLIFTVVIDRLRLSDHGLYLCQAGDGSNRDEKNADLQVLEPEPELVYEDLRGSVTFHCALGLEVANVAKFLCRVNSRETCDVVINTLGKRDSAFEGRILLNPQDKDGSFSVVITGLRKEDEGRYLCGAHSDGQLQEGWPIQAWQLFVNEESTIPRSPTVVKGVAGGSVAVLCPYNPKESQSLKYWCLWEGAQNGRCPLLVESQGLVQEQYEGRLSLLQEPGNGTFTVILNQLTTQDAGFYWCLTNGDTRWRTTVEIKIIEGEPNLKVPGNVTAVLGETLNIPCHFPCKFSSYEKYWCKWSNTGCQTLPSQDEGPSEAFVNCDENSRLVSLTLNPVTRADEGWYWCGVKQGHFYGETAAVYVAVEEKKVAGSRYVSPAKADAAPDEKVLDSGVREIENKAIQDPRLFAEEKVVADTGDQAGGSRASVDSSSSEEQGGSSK
How it was run: as §1

[4] = molecular target: T2, rat pIgR extracellular domain; assay: SPR, VHH captured by anti-Fc, ECD analyte
How it was run: as §1

[5] = molecular target: T3, human pIgR extracellular domain (ECD); assay: SPR

Row | Binder | Kd [1] | Kd [2] | Kd [3] | Kd [4] | binding result [5]
1 | 01H10R2 VHH Mono-Fc (Fc fusion) QVQLVESGGGLVQPGGSLRLSCAASGRTSSISTMGWFRQAPGKEREFVTAIRWSGSSSYKYYADSVKGRFTISRDNARNTVYLQMNSLKPEDTAVYYCAAQMSLWRDPREIDYDYWGQGTLVTVSSSPAPELLGGPSVFLFPPKPKDTLMISRTPEVTCVVVDVSHEDPEVKFNWYVDGVEVHNAKTKPREEQYNSTYRVVSVLTVLHQDWLNGKEYKCKVSNKALPAPIEKTISKAKGQPREPQVYTKPPSREEMTKNQVSLSCLVKGFYPSDIAVEWESNGQPENNYKTTVPVLDSDGSFRLASYLTVDKSRWQQGNVFSCSVMHEALHNHYTQKSLSLSPGK | 5.95 nM | 3.45 nM | 2.92 nM | 2.4 nM | 
2 | 01C03R3 VHH Mono-Fc (Fc fusion) QVQLVESGGGLVQAGGSLRLSCAASGRTFSSYAMGWFRQAPGKEREFVAAIHWNGASTYRYSADSVKGRFTISRDNAKNTVYLQMNSLKPEDTAAYYCAASPPPTVGDVRDPANYDSWGQGTLVTVSSSPAPELLGGPSVFLFPPKPKDTLMISRTPEVTCVVVDVSHEDPEVKFNWYVDGVEVHNAKTKPREEQYNSTYRVVSVLTVLHQDWLNGKEYKCKVSNKALPAPIEKTISKAKGQPREPQVYTKPPSREEMTKNQVSLSCLVKGFYPSDIAVEWESNGQPENNYKTTVPVLDSDGSFRLASYLTVDKSRWQQGNVFSCSVMHEALHNHYTQKSLSLSPGK | 13.3 nM | 25.6 nM | 22.2 nM | 15.2 nM | 
3 | 01E05R2 VHH Mono-Fc (Fc fusion) QVQLVESGGGLVQAGGSLRLSCAASGRAFSSGRMGWFRQAPGKEREFVAAISWSGHTTYKYYADSVKGRFTISRENAKNTVSLQMNSLKPEDTAVYYCAARQSLVAGGDPRGQSEYDYWGQGTLVTVSSSPAPELLGGPSVFLFPPKPKDTLMISRTPEVTCVVVDVSHEDPEVKFNWYVDGVEVHNAKTKPREEQYNSTYRVVSVLTVLHQDWLNGKEYKCKVSNKALPAPIEKTISKAKGQPREPQVYTKPPSREEMTKNQVSLSCLVKGFYPSDIAVEWESNGQPENNYKTTVPVLDSDGSFRLASYLTVDKSRWQQGNVFSCSVMHEALHNHYTQKSLSLSPGK | 34.2 nM | 17.3 nM | 36.2 nM | 16.1 nM | 
4 | 01A02R3 VHH Mono-Fc (Fc fusion) EVQLVESGGGLVQSGGSLRLSCAASGRTFDQFTVGWFRQAPGKEREFVTAIRWSGSTTYRYYADSVKGRFTISRDNARNTVDLQMNSLKPEDSAVYYCAGQMSQWSDPRGDDYDSWGQGTLVTVSSSPAPELLGGPSVFLFPPKPKDTLMISRTPEVTCVVVDVSHEDPEVKFNWYVDGVEVHNAKTKPREEQYNSTYRVVSVLTVLHQDWLNGKEYKCKVSNKALPAPIEKTISKAKGQPREPQVYTKPPSREEMTKNQVSLSCLVKGFYPSDIAVEWESNGQPENNYKTTVPVLDSDGSFRLASYLTVDKSRWQQGNVFSCSVMHEALHNHYTQKSLSLSPGK | 17.9 nM | 7.18 nM | 4.97 nM | 2.78 nM | 
5 | 01B07R2L VHH Mono-Fc (Fc fusion) EVQLVESGGGLVQAGGSLRLSCAASGRTFSSDAVGWFRQAPGKEREFVAHIHWSGDFTTYYYYGDFVKGRFTISRGTAKNTVYLQMNSLKPEDTAVYYCAAPKGAIGDPRSTREYDYWGQGTLVTVSSSPAPELLGGPSVFLFPPKPKDTLMISRTPEVTCVVVDVSHEDPEVKFNWYVDGVEVHNAKTKPREEQYNSTYRVVSVLTVLHQDWLNGKEYKCKVSNKALPAPIEKTISKAKGQPREPQVYTKPPSREEMTKNQVSLSCLVKGFYPSDIAVEWESNGQPENNYKTTVPVLDSDGSFRLASYLTVDKSRWQQGNVFSCSVMHEALHNHYTQKSLSLSPGK | 11.4 nM | 4.46 nM | 2.11 nM | 2.33 nM | 
6 | 01H10R3 VHH Mono-Fc (Fc fusion) QVQLVESGGGLVQAGGSLRLSCAASGRAFSQYTMGWFRQAPGKEREFVTAIRWSGGSIYKYYADSVKGRFTISGDNARNTVDLQMNSLKPEDTAVYYCAARMSPWGDPRGNEYDYWGQGTLVTVSSSPAPELLGGPSVFLFPPKPKDTLMISRTPEVTCVVVDVSHEDPEVKFNWYVDGVEVHNAKTKPREEQYNSTYRVVSVLTVLHQDWLNGKEYKCKVSNKALPAPIEKTISKAKGQPREPQVYTKPPSREEMTKNQVSLSCLVKGFYPSDIAVEWESNGQPENNYKTTVPVLDSDGSFRLASYLTVDKSRWQQGNVFSCSVMHEALHNHYTQKSLSLSPGK | 34 nM | 47.1 nM | 94.6 nM | 11.4 nM | 
7 | 03D02R3 VHH Mono-Fc (Fc fusion) EVQLVESGGGLAQAGGSLRLSCTASGTISKIDVMAWYRQTPGNERELVARIFSNDVTHYVDSAKGRFTLSRAQDKNTVDLQMNSLEPDDAAVYYCNAQIWSDMRGRMDTYWGQGTLVTVSSSPAPELLGGPSVFLFPPKPKDTLMISRTPEVTCVVVDVSHEDPEVKFNWYVDGVEVHNAKTKPREEQYNSTYRVVSVLTVLHQDWLNGKEYKCKVSNKALPAPIEKTISKAKGQPREPQVYTKPPSREEMTKNQVSLSCLVKGFYPSDIAVEWESNGQPENNYKTTVPVLDSDGSFRLASYLTVDKSRWQQGNVFSCSVMHEALHNHYTQKSLSLSPGK | 0.391 nM | 126 nM | 37.8 nM | 126 nM | 
8 | 01C01R2L VHH Mono-Fc (Fc fusion) QVQLVESGGGLVQAGGSLRLSCAASGRTLRSYIVGWFRQAPGKEREFVAAVTWSDGRRVTADPVKGRFTISRDNAKNTVYLQMDSLKPEDAAVYYCAVSRGGAYEYSRAYEYWGQGTLVTVSSSPAPELLGGPSVFLFPPKPKDTLMISRTPEVTCVVVDVSHEDPEVKFNWYVDGVEVHNAKTKPREEQYNSTYRVVSVLTVLHQDWLNGKEYKCKVSNKALPAPIEKTISKAKGQPREPQVYTKPPSREEMTKNQVSLSCLVKGFYPSDIAVEWESNGQPENNYKTTVPVLDSDGSFRLASYLTVDKSRWQQGNVFSCSVMHEALHNHYTQKSLSLSPGK |  | 6.55 nM |  |  | no binding (tested: 30 nM)
9 | 01C03R2L VHH Mono-Fc (Fc fusion) EVQLVESGGGLVQAGGSLRLSCAASGRTLRSYIVGWFRQAPGKEREFVAAVTWSDGRRVTADPVKGRFTISRDNAKNTVYLQMDSLKPEDAAVYYCAVSHGGAYVESRAYEYWGQGTQVTVSSSPAPELLGGPSVFLFPPKPKDTLMISRTPEVTCVVVDVSHEDPEVKFNWYVDGVEVHNAKTKPREEQYNSTYRVVSVLTVLHQDWLNGKEYKCKVSNKALPAPIEKTISKAKGQPREPQVYTKPPSREEMTKNQVSLSCLVKGFYPSDIAVEWESNGQPENNYKTTVPVLDSDGSFRLASYLTVDKSRWQQGNVFSCSVMHEALHNHYTQKSLSLSPGK |  | 3.67 nM |  |  | no binding (tested: 30 nM)
10 | 01A07R3 VHH Mono-Fc (Fc fusion) EVQLVESGGGLVQTGESLRLSCAASGRAFSDLRMAWFRQVPGKEREFVAAVEWRGSSRYYYSADSVKGRFTISRTSPKGETYLQMNGLKPEDTAVYYCAAVSPVVGDPRNSDTYNYWGQGTQVTVSSSPAPELLGGPSVFLFPPKPKDTLMISRTPEVTCVVVDVSHEDPEVKFNWYVDGVEVHNAKTKPREEQYNSTYRVVSVLTVLHQDWLNGKEYKCKVSNKALPAPIEKTISKAKGQPREPQVYTKPPSREEMTKNQVSLSCLVKGFYPSDIAVEWESNGQPENNYKTTVPVLDSDGSFRLASYLTVDKSRWQQGNVFSCSVMHEALHNHYTQKSLSLSPGK | 0.2 nM | 1.41 nM | 10.7 nM | 1.24 nM | 
